# The supplement of paper PMC10567573
# ± gives the standard deviation.
# Assay: protein stability index of a GFP-peptide fusion (GPS, HEK-293T) (PSI 1-6); higher = more stable
# [1] = treatment: DMSO, c terminus: a fixed tail appended
# [2] = treatment: MLN4924 1 uM, 8 h, c terminus: a fixed tail appended
# [3] = treatment: DMSO, c terminus: native
# [4] = treatment: MLN4924 1 uM, 8 h, c terminus: native
# 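Note: 24-mer peptide tiles fused after GFP, lentivirally expressed, FACS-sorted into six equal bins by GFP/DsRed ratio, decoded by Illumina sequencing, PSI is the read-weighted mean bin number.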
Sequence,protein stability index [1],protein stability index [2],protein stability index [3],protein stability index [4]
SSPMVQVDEKGEKVRPSHKRCIVI [LARP4],2.69 ± 0.16,2.63 ± 0.12,–,–
SSRQTRPILKEQSSSSFSQGQSS [KRT16],–,–,5.3 ± 0.29,5.33 ± 0.25
SSSPPGTPSPADAKAPPTACYAGA [CEBPB],5.14 ± 0.14,4.91 ± 0.29,–,–
SSSTLMSSELETTSFFDSDEDDST [DVL3],5.54 ± 0.38,5.61 ± 0.14,–,–
STPVCSQKVVVTTPLHRDKTPLHQ [MYBL2],3.92 ± 0.22,4.26 ± 0.24,–,–
STVQILTEGFPPGGGNARATGMFL [ZFYVE21],2.16 ± 0.19,2.27 ± 0.35,–,–
SVDLMLGLPAQQVGPWLGQLQELL [RSAD1],2.38 ± 0.1,2.38 ± 0.45,–,–
SVKIIFKLPNDSRVERRFHFSQSL [FAF2],2.72 ± 0.67,2.76 ± 0.55,–,–
SVPLSLCVSSHLALPAQHHWESW [CLPTM1],–,–,2.22 ± 0.1,2.33 ± 0.25
SVVSYTLKDIHDDQDYLHSLGKAR [FLOT1],3.43 ± 0.3,3.54 ± 0.28,–,–
SWQDLKDHMREAGDVCYADVYRDG [SRSF1],3.96 ± 0.68,4.21 ± 0.12,–,–
SYNITVTATDGGSPPLSTEAHFML [PCDHGA10],2.03 ± 0.36,2.09 ± 0.4,–,–
TARRSKRERREEDRAPAEQVPRSP [PWWP2B],5.38 ± 0.26,5.16 ± 0.45,–,–
TCLTGVLGVGLGVEISRRLRHSNP [SPNS1],2.36 ± 0.22,2.09 ± 0.36,–,–
TDRKLDDGDDKVFRRAPSWRKRFR [PPFIA4],4.38 ± 0.082,4.51 ± 0.47,–,–
TFFLRTDAETPPRFTRTPVDQTGV [PTPRD],3.42 ± 0.16,3.28 ± 0.45,–,–
TFHHPTYGSCYTVDGVWTAQRPGI [SCNN1D],2.61 ± 0.41,2.61 ± 0.29,–,–
TGCVLGSSGKVLPKWGWEQLEVTC [POMT2],2.07 ± 0.36,2.25 ± 0.27,–,–
TGERPYECNECGKAFSRSSGLFNH [ZSCAN9],2.48 ± 0.4,2.6 ± 0.37,–,–
TGFRTISSLEEIVEKQGDTIEYLK [TMEM192],3.98 ± 0.41,4 ± 0.2,–,–
TGSPARLSLRQTGSPGMIYSTRYG [KCNAB2],3.15 ± 0.45,3.12 ± 0.45,–,–
THSSVVLQGFDQLRLEGLLCDVTL [KLHL13],2.43 ± 0.33,2.19 ± 0.19,–,–

Sequence,protein stability index [1],protein stability index [2],protein stability index [3],protein stability index [4]
THTKEQILELVVLEQFVAILPKEL [ZNF24],3.04 ± 0.72,2.54 ± 0.66,–,–
TIKRSSQTGEWQNIAIMTEEPELS [GFOD1],4.42 ± 0.33,4.26 ± 0.43,–,–
TKETEQLRSQLQTLKQQHQQAVEQ [CCDC89],4.9 ± 0.19,4.87 ± 0.21,–,–
TKNKSKHALRKKQLKRQKRDYIHS [FAM9B],3.71 ± 0.1,3.76 ± 0.1,–,–
TKPSKSAALHIDLCKATSPADALQ [INTS4],3.91 ± 0.1,3.84 ± 0.29,–,–
TLITAVELERFVNLHSLALDFCDF [FBXO33],2.47 ± 0.28,2.95 ± 1.3,–,–
TLKKFKGDLAYRRQEYQKALQEYS [C8orf76],2.82 ± 0.29,2.79 ± 0.31,–,–
TLSKPSPMPVSQECFETLRGDERI [CHGA],4.81 ± 0.26,4.75 ± 0.17,–,–
TLYTAKKYAVPALEAHCVEFLTKH [BTBD1],2.7 ± 0.28,2.48 ± 0.12,–,–
TNHIAPHARNGLSLKEEHRAYDLL [IKZF1],3.43 ± 0.28,3.64 ± 0.11,–,–
TNSDVLAQQFALMAPLLFNGCRSG [DCAF4],2.23 ± 0.27,2.14 ± 0.3,–,–
TPDQKYSMDNTPHTPTPFKNALEK [MYBL2],5 ± 0.2,5.22 ± 0.2,–,–
TPGLGVVAVLLLFLVVREPPRGAV [SPNS1],2.69 ± 0.44,3.28 ± 0.6,–,–
TPHMLLDLSDLLQVDSLRPASFPT [BRF1],2.28 ± 0.2,2.43 ± 0.2,–,–
TPPSSRRVWSPPRVHKVEMGFGGG [ZBTB22],3.22 ± 0.4,3.33 ± 0.081,–,–
TPSEEHMKNKNNVTEFILLGLTQN [OR4A15],3.26 ± 0.33,3.21 ± 0.21,–,–
TQKLEEIKENAQDTMRQINKKGFW [TOR1AIP2],3.61 ± 0.16,4.08 ± 0.36,–,–
TQMIREGGARSLWRGNGINVLKIA [SLC25A25],2.72 ± 0.25,2.77 ± 0.21,–,–
TSFQWVTKWVDYSNKYGFGYQLSD [PLK2],2.06 ± 0.57,2.08 ± 0.31,–,–
TSGVVFTGLMVSLLCLLHFSIVSV [RTN2],3 ± 0.53,3.07 ± 0.24,–,–
TSPVLPSLIQLLGRNFILFIIFGT [HACD3],3.11 ± 0.48,2.98 ± 0.4,–,–
TSRWSSMEIMEAYSVARQFNLTPP [KCNAB2],2.57 ± 0.22,2.84 ± 0.084,–,–
